The values below come from PMC7666153, “The phosphorylated regulator of chemotaxis is crucial throughout biofilm biogenesis in Shewanella oneidensis” (NPJ Biofilms and Microbiomes, 2020).

The data set deals with the molecule itself. The data set can be described thus: cross-linking; Strep-tagged CheY3 (11.8 µM) and His-tagged SO4207S (3.1 µM), together or separately, 5 mM EDC, 1 h at room temperature, 10 mM cacodylate buffer; SDS-PAGE and blot with HisProbe-HRP.

Broadly, the stoichiometry N is a count of units in the complex or per binding partner.

B1: His-tagged SO4207S (soluble cytoplasmic domain of SO4207, D388 to N625) (domain or fragment, S. oneidensis, UniProt Q8E9Q9 388-625, looked up)
chain: DERKAKQRIQQEALKQAQKIRSAREEALKVEAETNERLEQKVQERTLELEITLRELHEVNQKLTEQSTIDSLTGVKNRSAFDKRLLAESRISRRQETPIALLMLDIDRFKSINDQFGHLAGDQALKLIAQTLQQHLKRPTDLVSRFGGEEFAIILPNTTADGALQVAESIRDTVSCIGLTWEGKPIPLTVSIGVSADVIMNEQHSTELLEQADKALYQAKNSGRNQVKLYAPAQTEPN
notes: diguanylate cyclase SO4207 of Shewanella oneidensis, cytoplasmic domain D388 to N625, devoid of the transmembrane segments; Cloned into pET21b; printed mass 30 kDa; also called pET-SO4207S; source: E. coli BL21 (DE3), purified (HisTrapFF); not shown: 6xHis-tag, C-terminal, kept
With B1, the “stoichiometry N” value worked out at 2.
